From paper PMC10457294 come the findings set out here.

In assay [1] the target is human B7.2 ectodomain fused to human Fc (human) (UniProt P42081). Kind of assay: BLI; […] (10 ug/mL) […]; 10 mM HEPES pH 7.4, 150 mM NaCl, 3 mM EDTA, 0.05% Tween, 1% BSA; 25 °C; 1:1 model; […]. For orientation: Biolayer interferometry detects binding as a change in optical thickness at a sensor tip.
In assay [2] the target is human B7.1 ectodomain fused to human Fc (human) (UniProt P33681). The assay is described as above.
Assay [3] has as its target MPXV M2 (monkeypox virus M2 protein), His-tagged, wild type (monkeypox virus (Clade I)) (UniProt Q8V554). Put plainly: cryo-EM structure.
The target of assay [4] is human B7.2 ectodomain, His-tagged (human) (UniProt P42081). Put plainly: cryo-EM structure.
The target of assay [5] is human B7.1 ectodomain, His-tagged (human) (UniProt P33681). Kind of assay: cryo-EM structure.
In assay [6] the target is MPXV M2 (monkeypox virus M2 protein), His-tagged, wild type (monkeypox virus (Clade I)) (UniProt Q8V554). Put plainly: SEC-MALS.

Where “and” joins values, the source holds several entries; their conditions need not be identical. Identical values can stand only once.

Sequence of human B7.2 ectodomain fused to human Fc (human) (P42081 26-238): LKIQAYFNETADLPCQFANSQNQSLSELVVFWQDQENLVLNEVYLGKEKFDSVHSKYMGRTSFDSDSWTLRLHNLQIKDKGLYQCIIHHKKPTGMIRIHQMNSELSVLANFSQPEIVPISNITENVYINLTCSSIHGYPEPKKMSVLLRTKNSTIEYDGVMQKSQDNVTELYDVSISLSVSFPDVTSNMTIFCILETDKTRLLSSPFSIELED
Sequence of human B7.2 ectodomain, His-tagged (human) (P42081 26-238): as above
Sequence of human B7.1 ectodomain fused to human Fc (human) (P33681 35-234): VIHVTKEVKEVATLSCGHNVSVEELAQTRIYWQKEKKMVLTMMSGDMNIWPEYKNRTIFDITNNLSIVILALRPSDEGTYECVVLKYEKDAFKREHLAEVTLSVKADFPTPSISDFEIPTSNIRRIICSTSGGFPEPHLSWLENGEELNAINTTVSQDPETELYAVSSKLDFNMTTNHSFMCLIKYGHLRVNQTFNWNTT
Sequence of human B7.1 ectodomain, His-tagged (human) (P33681 35-234): as above

What is called stoichiometry N is the number of molecules, sites or subunits per partner or assembly. For the substance “MPXV M2 (monkeypox virus M2 protein), His-tagged, wild type (from UniProt Q8V554 18-220) (natural protein)”, the t1/2 (dissociation half-life time) in assay [1] came out at 19.7 h; in assay [2], 6.62 h. Moreover, the stoichiometry N is 6 and 7 in assay [3]; 1 in assay [4]; 1 in assay [5]; 6.12 in assay [6].
